Test results as given in patent US20240352438A1, “MEANS AND METHODS FOR DETOXIFYING OCHRATOXIN A” (DSM Austria GmbH, priority 2021, published 2024).

Columns and labels:
[1] = OTA detoxification activity assay (specific activity, fluorescence reduction ex/em 390/450 nm); assay type: biochemical; conditions: SEQ ID NO: 1 = 100%
Summary of the method: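 Recombinant enzyme preparation with 200 ng/mL OTA in 100 mM sodium phosphate, at pH 6.0 and pH 7.5, 37° C. Degradation followed as the fall in fluorescence at ex/em 390/450 nm. Specific activity taken from the initial linear slope; one unit degrades 1 μmol OTA per min at a starting OTA of […].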

[2] = Thermostability assay: residual OTA detoxification activity after 10 min incubation at 45-99° C. (T50); assay type: physicochemical; conditions: 0.1 mg/mL protein in 20 mM Tris-HCl pH 7.5, residual OTA detoxification activity relative to 4° C. reference aliquot
Summary of the method: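 T50 marks the temperature range at which half the starting OTA-detoxifying activity is lost, versus an unheated 4 °C reference. Samples were 0.1 mg/mL purified protein in 20 mM Tris-HCl pH 7.5, exposed for 10 min to 45, 55, 65, 75, 80, 85, 90, 95 or 99 °C.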

Molecule | Specific OTA detoxification activities in % compared to the enzyme of SEQ ID NO: 1, pH 6.0 [1] | Specific OTA detoxification activities in % compared to the enzyme of SEQ ID NO: 1, pH 7.5 [1] | T50 (temperature at which 50% of the initial activity was maintained) [2]
64 (protein, exemplary polypeptide) MTTRTRILTAFLSLLAANACAADAAPAAPHTVVLRAARMFDGASGKLVDHPQLTIVGNKIVRIAQGDKAEVPAGAEVVDLGDATLLPGFIDAHVHLSGQSSDNWYGDFFDNMMRFPAEQALYGAYYARITLEAGFTSVRDVGETDWVALGLRNAIDAGKVPGPRMLVSNYAVGSTGGHADQDPIPPHKLPLAGPLQGVCNGPEECRAAVRYQIKYGANVIKFMPSGGVLSLSDPVDAPELSQDEMNAVIGESHAWGRKVAAHAHGDKAAKMAVAAGVDSIEHGSFIEDDTLRAMKAKNVYLVPTISAIAHVEEKIGTFPPVIAEKGRAAAAHLRQTFRHAVQIGVPIALGTDAGVGAHGSNAREFRYMVENGLTPAQALLAGTANAARLLGTFDRVGTLEAGKLADVVAVPGNPIADITVTERPLFVMKDGVVVRRDAVR | 36% | 146% | 63-64 °C
71 (protein, exemplary polypeptide) MTTRTRILTAFLSLLAANACAADAAPAAPHTVVLRAARMFDGASGKLVDHPQLTIVGNKIVRIAQGDKAEVPAGAEVVDLGDATLLPGFIDAHVHLSGQSSDNWYGDFFDNMMRFPAEQALYGAYYARITLEAGFTSVRDVGSTDWVALGLRNAIDAGKVPGPRMLVSNYAVGSTGGHADQDPIPPHKLPLAGPLQGVCNGPEECRAAVRYQIKYGANVIKFMPSGGVLSLSDPVDAPELSQDEMNAVIGESHAWGRKVAAHAQGDKAAKMAVAAGVDSIEHGSFIEDDTLRAMKAKNVYLVPTISAIAHVEEKIGTFPPVIAEKGRAAAAHLRQTFRHAVQIGVPIALGTDAGVGAHGSNAREFRYMVENGLTPAQALLAGTANAARLLGTFDRVGTLEAGKLADVVAVPGNPIADITVTERPLFVMKDGVVVRRDAVR | 32% | 17% | 70.7-72.6 °C
66 (protein, exemplary polypeptide) MTTRTRILTAFLSLLAANACAADAAPAAPHTVVLRAARMFDGASGKLVDHPQLTIVGNKIVRIAQGDKAEVPAGAEVVDLGDATLLPGFIDAHVHLSGQSSDNWYGDFFDNMMRFPAEQALYGAYYARITLEAGFTSVRDVGSTDWVALGLRNAIDAGKVPGPRMLVSNYAVGSTGGHADQDPIPPHKLPLAGPLQGVCNGPEECRAAVRYQIKYGANVIKFMPSGGVLSLSDPVDAPELSQDEMNAVIGESHAWGRKVAAHAHGDKAAKMAVAAGVDSIEHGSFIEDDTLRAMKAKNVYLVPTISAIAHAEEKIGTFPPVIAEKGRAAAAHLRQTFRHAVQIGVPIALGTDAGVGAHGSNAREFRYMVENGLTPAQALLAGTANAARLLGTFDRVGTLEAGKLADVVAVPGNPIADITVTERPLFVMKDGVVVRRDAVR | 15% | 15% | 65.3-66.9 °C
67 (protein, exemplary polypeptide) MTTRTRILTAFLSLLAANACAADAAPAAPHTVVLRAARMFDGASGKLVDHPQLTIVGNKIVRIAQGDKAEVPAGAEVVDLGDATLLPGFIDAHVHLSGQSSDNWYGDFFDNMMRFPAEQALYGAYYARITLEAGFTSVRDVGSTDWVALGLRNAIDAGKVPGPRMLVSNYAVGSTGGHADQDPIPPHKLPLAGPLQGVCNGPEECRAAVRYQIKYGANVIKFMPSGGVLSLSDPVDAPELSQDEMNAVIGESHAWGRKVAAHAHGDKAAKMAVAAGVDSIEHGSFIEDDTLRAMKAKNVYLVPTISAIAHVEEKIGTFPPVIAEKGRAAAAHLRQTFRHAVQIGVPIALGTDAGAGAHGSNAREFRYMVENGLTPAQALLAGTANAARLLGTFDRVGTLEAGKLADVVAVPGNPIADITVTERPLFVMKDGVVVRRDAVR | 51% | 28% | <63.2 °C
69 (protein, exemplary polypeptide) MTTRTRILTAFLSLLAANACAADAAPAAPHTVVLRAARMFDGASGKLVDHPQLTIVGNKIVRIAQGDKAEVPAGAEVVDLGDATLLPGFIDAHVHLSGQSSDNWYGDFFDNMMRFPAEQALYGAYYARITLEAGFTSVRDVGSTDWVALGLRNAIDAGKVPGPRMLVSNYAVGSTGGHADMDPIPPHKLPLAGPLQGVCNGPEECRAAVRYQIKYGANVIKFMPSGGVLSLSDPVDAPELSQDEMNAVIGESHAWGRKVAAHAHGDKAAKMAVAAGVDSIEHGSFIEDDTLRAMKAKNVYLVPTISAIAHVEEKIGTFPPVIAEKGRAAAAHLRQTFRHAVQIGVPIALGTDAGVGAHGSNAREFRYMVENGLTPAQALLAGTANAARLLGTFDRVGTLEAGKLADVVAVPGNPIADITVTERPLFVMKDGVVVRRDAVR | 102% | 75% | <63.2 °C
73 (protein, exemplary polypeptide) MTTRTRILTAFLSLLAANACAADAAPAAPHTVVLRAARMFDGASGKLVDHPQLTIVGNKIVRIAQGDKAEVPAGAEVVDLGDATLLPGFIDAHVHLSGQSSDNWYGDFFDNMMRFPAEQALYGAYYARITLEAGFTSVRDVGSTDWVALGLRNAIDAGKVPGPRMLVSNYAVGSTGGHADQDPIPPHKLPLAGPLQGVCNGPEECRAAVRYQIKYGANVIKFAPSGGVLSLSDPVDAPELSQDEMNAVIGESHAWGRKVAAHAHGDKAAKMAVAAGVDSIEHGSFIEDDTLRAMKAKNVYLVPTISAIAHVEEKIGTFPPVIAEKGRAAAAHLRQTFRHAVQIGVPIALGTDAGVGAHGSNAREFRYMVENGLTPAQALLAGTANAARLLGTFDRVGTLEAGKLADVVAVPGNPIADITVTERPLFVMKDGVVVRRDAVR | 20% | 23% | 74.4-77.0 °C
72 (protein, exemplary polypeptide) MTTRTRILTAFLSLLAANACAADAAPAAPHTVVLRAARMFDGASGKLVDHPQLTIVGNKIVRIAQGDKAEVPAGAEVVDLGDATLLPGFIDAHVHLSGQSSDNWYGDFFDNMMRFPAEQALYGAYYARITLEAGFTSVRDVGSTDWVALGLRNAIDAGKVPGPRMLVSNYAVGSTGGHADQDPIPPHKLPLAGPLQGVCNGPEECRAAVRYQIKYGANVIKFCPSGGVLSLSDPVDAPELSQDEMNAVIGESHAWGRKVAAHAHGDKAAKMAVAAGVDSIEHGSFIEDDTLRAMKAKNVYLVPTISAIAHVEEKIGTFPPVIAEKGRAAAAHLRQTFRHAVQIGVPIALGTDAGVGAHGSNAREFRYMVENGLTPAQALLAGTANAARLLGTFDRVGTLEAGKLADVVAVPGNPIADITVTERPLFVMKDGVVVRRDAVR | 34% | 46% | 74.4-77.0 °C
68 (protein, exemplary polypeptide) MTTRTRILTAFLSLLAANACAADAAPAAPHTVVLRAARMFDGASGKLVDHPQLTIVGNKIVRIAQGDKAEVPAGAEVVDLGDATLLPGFIDAHVHLSGQSSDNWYGDFFDNMMRFPAEQALYGAYYARITLEAGFTSVRDVGSTDWVALGLRNAIDAGKVPGPRMLVSNYAVGSTGGHADQDPIPPHKLPLAGPLQGVCNGPEECRAAVRYQIKYGANVIKFMPSGGVLSLSDPVDAPELSQDEMNAVIGESHAWGRKVAAHAHGDKAAKMAVAAGVDSIEHGSFIEDDTLRAMKAKNVYLVPTISAIAHVEEKIGTFPPVIAEKGRAAAAHLRQTFRHAVQIGVPIALGTDAGVGPHGSNAREFRYMVENGLTPAQALLAGTANAARLLGTFDRVGTLEAGKLADVVAVPGNPIADITVTERPLFVMKDGVVVRRDAVR | 70% | 67% | 70.7-72.6 °C
70 (protein, exemplary polypeptide) MTTRTRILTAFLSLLAANACAADAAPAAPHTVVLRAARMFDGASGKLVDHPQLTIVGNKIVRIAQGDKAEVPAGAEVVDLGDATLLPGFIDAHVHLSGQSSDNWYGDFFDNMMRFPAEQALYGAYYARITLEAGFTSVRDVGSTDWVALGLRNAIDAGKVPGPRMLVSNYAVGSTGGHADLDPIPPHKLPLAGPLQGVCNGPEECRAAVRYQIKYGANVIKFMPSGGVLSLSDPVDAPELSQDEMNAVIGESHAWGRKVAAHAHGDKAAKMAVAAGVDSIEHGSFIEDDTLRAMKAKNVYLVPTISAIAHVEEKIGTFPPVIAEKGRAAAAHLRQTFRHAVQIGVPIALGTDAGVGAHGSNAREFRYMVENGLTPAQALLAGTANAARLLGTFDRVGTLEAGKLADVVAVPGNPIADITVTERPLFVMKDGVVVRRDAVR | 80% | 77% | <63.2 °C
